{
  "source": "the DeepSol protein solubility set",
  "data": [
    {"experiment": "soluble on expression in E. coli; label from the status in PepcDB or PDB records", "values": [
      {"sequence": "MGSDKIHHHHHHMSSIFEKYSVRRVINASGKMTILGVSTVDKEVIEAIGEGCKNFFIIEELINKTGEYIANLLGCESALIVSSASAGIAQSVGAMIAKDDMSLVYNVNNPKKQVKREIIIPKGHNVDYGVPVEVMIRLGGGEVVEAGYANMCNKEHIIREINENTAAIMYIKSHHCVQKSMLSVLDAVQVAKEYNLPLIVDAAAEEDLNVYYELGADLVIYSGAKAIEGPSSGLVIGKKKYIDNVKLQSKGIGRAMKIGKENIVGLTCAIERYISNDKVTLKEMEDKLNPFIDKINTIKGVSASITRDSAGREILRGEIDFNEDIINKSTQQIINELRSGEIAIYTRDYKANEGKIEIDIRSVTGSDLDTIYNRIKNIVES", "soluble on expression in E. coli": "not soluble"},
      {"sequence": "MGSDKIHHHHHHMSSIIAALTYFFKEVLVFVSYVKNNAFPQPLSKEEERHYLKRMAEGDEEARNRLIEHNLRLVAHIVKKFENTREHTEDLISIGTIGLIKAIESFSEGKGTKLATYAARCIENEILMHLRALKKVKKDVSLHDPIGTDKEGNEITLIDVLQEDSEDIADSIQLKMEKKQIYEYIHVLDDREKEVIVGRFGLDLEEERTQREIAKELGISRSYVSRIEKRALMKLFHEFYKHNHGKG", "soluble on expression in E. coli": "not soluble"},
      {"sequence": "MGSDKIHHHHHHMSSLPLQKSLYPLLRPLGAAYRVLMRARRRRYENGAACGTDVPCVSVGNIGWGGSGKTPVVQWLLQWAAVHGLHAVVLTRGYKASPPGLPYVVTPQSSAAHAGDEPLMLARSCPQATVVVDPVRSRSARWAQERLAPDFFVLDDGFQHVQVARDTDLVLLKKDDLHAEWGRVLPAGSWREGPEALSRAAAFCIKCGSGEFSGLVPDFENRLGSFGVPVFGFSLRPGALIPVCGAHEGAQLPAGAPYVLFSGVGDPAQVAVTVSSFLGYDPVRHHVFADHHGYTQADMDRMAGYGLPLVCTPKDAVKLTAPCGVPVWTLSLETNFHSVWNAQPPAGQAGEGFAQWWQCRWQRLAGLR", "soluble on expression in E. coli": "not soluble"},
      {"sequence": "MGSDKIHHHHHHMSSPFDYFVVFAEMRTGSNFLEANLNALDGVACVGEAFNPHFIGYPNKTEILEVSQDMRDADPQCLIDAVRDARGVLAGFRFFHDHDPRVLDLVLSDPRCAKIILTRNPLDSYVSWKIAKETGQWKLTNIKRRKEAQARFDAEEFARHVEALQDFQVFLLNSLQRSGQTPFYVAYEDLQDLSVMNGLAQWLGVSARLEQLDDSLKRQNPSPVTSKVVNAGEMVEALSGLDRFNLTRTPNFEPRRGPAVPTYVTGAVTPLIYLPVRGGPEDEVRRWMADLDGVVDAALGTGLNQKQVRGWLKGNEGHRAFTVLRHPLARAHSAFCHRILNKGPGCFTKIRNTLRRQFSLPIPEGTPGLDYGRADHRAAFEAFLEFVRMNLAGQTAIRIDGSWCSQAQALSSFAEFVSPDLILREDEIATDLPSLARRFGHAEPPEPPRAAPDTPIPLSDIYDDALEALAADVYQRDYIVFGFGKWAGGQA", "soluble on expression in E. coli": "not soluble"},
      {"sequence": "MGSDKIHHHHHHMSSSQQIAKNARKAGNILKTISNEGRSDILYKIHDALKANAHAIEEANKIDLAVAKETGLADSLLKRLDLFKGDKFEVMLQGIKDVAELEDPVGKVKMARELDDGLTLYQVTAPVGVLLVIFESRPEVIANITALSIKSGNAAILKGGKESVNTFREMAKIVNDTIAQFQSETGVPVGSVQLIETRQDVSDLLDQDEYIDLVVPRGSNALVRKIKDTTKIPVLGHADGICSIYLDEDADLIKAKRISLDAKTNYPAGCNAMETLLINPKFSKWWEVLENLTLEGGVTIHATKDLKTAYFDKLNELGKLTEAIQCKTVDADEEQDFDKEFLSLDLAAKFVTSTESAIQHINTHSSRHTDAIVTENKANAEKFMKGVDSSGVYWNASTRFADGFRYGFGAEVGISTSKIHARGPVGLDGLVSYQYQIRGDGQVASDYLGAGGNKAFVHKDLDIKTVTL", "soluble on expression in E. coli": "soluble"},
      {"sequence": "MGSDKIHHHHHHMSTDTDDDSGSHGCKAPDSDGEVAENIAIVAFERKMDTAEDIVDGIGDRYESIDILEYHGDVFEEYWGEYDCFIGLMASGIAMRKTAHLLDDKWDDPAICVVDEELTWAIPITGGHHGANQVADDLASMGAVPAMTTASEAADKQGVEKQAKALDAHVVNGDSTVATNLAVLDDELGPIERLDGPKAVLVDDDVTVLKRNKDDGIVLGCGSVAGADVEQFHAAWEQALDEADLDRDDVEFVATGTRKADEEGMLAAAEEWGLGVIAFEKETLEGFEGPTPSRSKELIGWPGIAEASAIAAGSEHDLLAEKTRYDEAVTVAIGR", "soluble on expression in E. coli": "not soluble"},
      {"sequence": "MGSDKIHHHHHHMSTNISLFAQVIRLLPRPLIKKLSTEFQVDKHSKHFTSWQHLVSMIFSQFSSCISLREISNGLRSATGNLNHLGICTAPSKSNLSYQNEHRTSDFFRACYYALLDYFGQQGMGQGRKFRFKQPVKLLDSTTITLCLALYDWAKYTHTKGAVKLHTLLDFKTLLPEYVHISDGKGHDGKMANSIPIPAGSIVVADRGYADTALLNSWDSTQVSFVVRHPRSLKYEVIQELELPEHGHQQILVDQRVRLTGVQTQGKYTKPLRHIALYNEQHGDVVELLTNIDTLAASSIALLYRSRWLIEIFFRNLKQRLSMKAFLGTTRNAVEVQIWTALITMLLMVYLKSIAKYRWCLSNLVSSLRINTFTKMDLMQWLNEPFTPPPEPENQLF", "soluble on expression in E. coli": "not soluble"},
      {"sequence": "MGSDKIHHHHHHMSTPSPHCALCGIALGERLCRDSEGKSPAFCPTQNFSEIKEENSALYEGETKRFAKNAAIQEASCYEGREQGYAHLRPAKPRIEEIIEFAQKMGYQKLGLAFCMGLRNEAKAVELLLQKRGFEVVSVICKVGNSDKSTLGIDEEDKLIPHTPEAMCDPLLQARLLNESQTDFNIMLGLCVGHDSLFLKASEALCTVFAVKDRLLGHNPLAAIYTLESYYRSLKEG", "soluble on expression in E. coli": "not soluble"},
      {"sequence": "MGSDKIHHHHHHMSVGIRHDDLRRRNRAMVIAAVRRAGRPSRTEIAATTGLSHSTISAISSDLIGEGILAEGKPSEAGALKRGRPQVGLGLNPEAAAVMTVVLSLNFLSVAVIDYAGQVISEEQRRLDTLTMSREALIGECVAIVRRRLEDPDIDVRSVARIALAIQGITDTEARAMLWSPITPQTDIAFADILEAEFGIPATMENDCNMMAVALRWRDPERYRDDFIAILLSHGIGMGLVLKGELFTGTHSSGGEFGHMIHRPGGALCRCGRRGCVEAYAGNYAIWRNARQLSEDTEPVADVSDAQMRALAATARERDGPEREAYRKAGEALGYGLGSLFALIDPAPVAMVGVSAAAFDLIEPALREAIAQTAGGQHSESISFDTEPNELPLIREGCAMRALTFVDQEIFAPGVQTKAGLAAKKNVA", "soluble on expression in E. coli": "not soluble"},
      {"sequence": "MGSDKIHHHHHHMSVLKGSQNVTICNANGLKLAARLELPDIPPRGMAMIAPAFGCTKEILIASRTARRLLQYGIGSLRLDFTGIGQSEGDFSMTNLDTQVEDFVSAADWLRQHVAAPNILIGHSFGGLVALNACHSIPESRACVTIATPESPAHVLEIIGEDKTREIMQGGATSIEVNRQPYVLRRQFADHARQFRLHDTMQRLRVPVLIMHSPRDEMVPMRHAHAIFETARHPKSLLAIEDADHMVSERPAAEFVASTIGLWGMRYLTDG", "soluble on expression in E. coli": "not soluble"},
      {"sequence": "MGSDKIHHHHHHMSVLNAKECVSPITRSVKYHQQSAEIRALQLQSYKMAKMALDNNLKLVKDKKPAVILDLDETVLNTFDYAGYLIKNCIKYTPETWDKFEKEGSLTLIPGALDFLEYANSKGVKIFYISNRTQKNKAFTLKTLKSFKLPQVSEESVLLKEKGKPKAVRRELVAKDYAIVLQVGDTLHDFDAIFAKDAKNSQEQRAKVLQNAQKFGTEWIILPNSLYGTWEDEPIKAWQNKK", "soluble on expression in E. coli": "not soluble"},
      {"sequence": "MGSDKIHHHHHHMSVPRWVAERTGLPRTAHDAGTIGAAGCTVNRFAVALMPDSGGHPRKPIAGVDAPPPHLLLVARRMTRPGEHMALTTYTPVITVFAAGREWTLERAADLQTLWDNMVEADFGDDERLPYWTELWPSSLVLADWLHDNAGRIRGRTCLDMGCGLGLCSLVGQWLGARVTGMDYEPEALFHARRNAERNRVPQPLWTVMDWRAPAVRRHAADLVWGGDIMYERRFVTPVLDFLDHVLAPCGAAWVAEPGRTVYNHFRETLDARGWHARRVLSSETASLYEQPESVTVHLWEITR", "soluble on expression in E. coli": "not soluble"},
      {"sequence": "MGSDKIHHHHHHMSYGYDKNADDIMKNADHIFEIKGIMRFPDRLKESIGDISIRSFAKKCGLSEGVMRNYLAGKTYPSLDKLALMAEVSNKPLDWLVAGTEHNFNELNEPGSKYVIGINLEEYALIPGYRVQVSAGHGALNCDQQDPVRYLAFRRKWLKYRGFEEHELAIVWAKGDSMEPTIHSNDTLVVHLGRNSPADGHIYIFRNGDDLFVKRYQNAFGSWRLISDNPVYDKLDIPKHEQHQFEVVGQVVHIAKDIGD", "soluble on expression in E. coli": "not soluble"},
      {"sequence": "MGSDKIHHHHHHMTAKVISFINMKGGVGKTTLCVGVSEFMAHFKSKKILLIDLDPQFNATQTLMDMYDLTDQYMNDIRFNKTIRLLFEETHSVSERPVLPKPDKVILHLDTSDVIDGELDIICGSIDLIKDDDSRKSKYKRVRKFLREQGLLKHYDYIFIDCPPTISFYTDAALYASDYYIVPTRIDRYSILGINLLKTVIEQAKFDDDLSIEPLGLIYTNYPTNNIPAPKQQEILDVLEENKDVLEIGVFRNKFHYLEHLMTGKSGNIASKYVKSKKDIEKISVEIESKVH", "soluble on expression in E. coli": "not soluble"},
      {"sequence": "MGSDKIHHHHHHMTALDDKTIVRDYFNATGFDRWSRIYGDGEVNFVQKNIRIGHQRTVDTVLSWLEADGNLSDRSFCDAGCGVGSLSLPLAQRGAQAVYASDISAKMVEEARERASQIPNLNNIQLEVSDLASLSGRYDTVICLDVLIHYPESDAAAMLSHLCSLAEQRVLVSFAPKSPVLNVLKRIGQFFPGASKTTRAYQHSETAIAAALAANGFQVQRRAFNKAPFYFSLLLEAVRTA", "soluble on expression in E. coli": "not soluble"},
      {"sequence": "MGSDKIHHHHHHMTDFSQLPNAAGVGYKPQHFQNIIDGSGAVDWLEIHAENYMGDGGRPLAQLRHLAERFPISVHGVGLSIGGEGPLDPEHLARLKHLVDWLKPASFSEHLAWSTHDTHFYNDLLPLPYTDATLARICDHIDMVQTLLGRRMLLENPSSYLAFAESTWEEPAFLHEIAKRTGCGLLLDVNNVFVSATNLGYRPQDYIDAYPLDLVGEIHLGGHDEDEDDHGRPLLIDSHGAEVVDPVWSLLSYTLTRSGPKPTLVEWDTDVPEWSVLEAEAARAANALRTAKVAA", "soluble on expression in E. coli": "not soluble"},
      {"sequence": "MGSDKIHHHHHHMTDKMQSLALAPVGNLDSYIRAANAWPMLSADEERALAEKLHYHGDLEAAKTLILSHLRFVVHIARNYAGYGLPQADLIQEGNIGLMKAVRRFNPEVGVRLVSFAVHWIKAEIHEYVLRNWRIVKVATTKAQRKLFFNLRKTKQRLGWFNQDEVEMVARELGVTSKDVREMESRMAAQDMTFDLSSDDDSDSQPMAPVLYLQDKSSNFADGIEDDNWEEQAANRLTDAMQGLDERSQDIIRARWLDEDNKSTLQELADRYGVSAERVRQLEKNAMKKLRAAIEA", "soluble on expression in E. coli": "not soluble"},
      {"sequence": "MGSDKIHHHHHHMTDMTYDVEQDVVAESERISAIFSEVLDIGQVAATDNFFNLGGDSFDAIRVMSRLDGNLPIVALFEHPTAETLARFRLTEESLAITRLVPLFDQTKTNGPIVVICVPYGGGDPTAYRDLFNDHPDVRVFGVDFGDAEIHSPSDFSGLINTLVNEIEAIDAEQIIVYGHCAGAATAACLASAITFTTSAVSLVVAASNPVDDPDAAIHDAAMTSDADWGQYLRSLGAFNGLTDKETDAMLTKGRRDHFIATEAYRTLARQPARGIPAMLLLGDKDPATVKVEEIVNKWRKIIDLVKSANVTGGEHYFIRTHAQEVASKVLSFQLKHK", "soluble on expression in E. coli": "not soluble"},
      {"sequence": "MGSDKIHHHHHHMTEADLFVSQFLTEKLTALFPNVPVLSEENCHISFEERKNWKEYWLIDPLDGTQQFINRTDQFSVLITLVRKNKPVLSVIHAPILSTTYYAMCDFGTFKKQLDQVKKLTKNTTNFDRPLRIAVGATTSQEKVRSILPKDFPCEFVVVGSSSLKSGLVAEGAVDCYVRLGQTGEWDTAGAEVLLGETHGAIFDSHFEPLTYNQRETLINPHFVMVGDQSFDWRSIFQFN", "soluble on expression in E. coli": "not soluble"}
    ]}
  ]
}
